Test results reported in patent US20190270817A1 (Amgen, published 2019).
Positions count from the first letter of the chain named. Numbers in names are those of the source.

Biological target: T1, cynomolgus monkey IL-21R, recombinant soluble (FLAG-His or Fc, not stated which) (cynomolgus monkey, UniProt G7Q0S8 41-253)
T1 construct: also called IL-21R Cy
Test: ForteBio Octet

B1: A-1-003 (20A2.003) x IL-21 (R5A, R76E) homodimer fusion (other, not shown: a dimerising Fc or GST)
heavy: not shown
light: SYELTQPPSVSVSPGQTASITCSGDKLGDKYASWYQQKPGQSPVLVIYQDRKRPSGIPERFSGSNSGNTATLTISGTQAMDEADYYCQAFESSTEVFGGGTKLTVLGQPKAAPSVTLFPPSSEELQANKATLVCLISDFYPGAVTVAWKADSSPVKAGVETTTPSKQSNNKYAASSYLSLTPEQWKSHRSYSCQVTHEGSTVEKTVAPTECS
Kd: > 300 nM

B2: A-1-003 (20A2.003) x IL-21 (R9E, R76A) homodimer fusion (other, not shown: a dimerising Fc or GST)
heavy: not shown
light: B1 light
Kd: > 300 nM

B3: A-1-003 (20A2.003) x IL-21 (R5E, R76A) homodimer fusion (other, not shown: a dimerising Fc or GST)
heavy: not shown
light: B1 light
Kd: > 300 nM

B4: A-1-003 (20A2.003) x IL-21 (R5Q, R76E) homodimer fusion (other, not shown: a dimerising Fc or GST)
heavy: not shown
light: B1 light
Kd: > 300 nM

B5: A-2-006 (22D4.006) x IL-21 (R5A, R76E) homodimer fusion (other, not shown: a dimerising Fc or GST)
heavy: EVQLVESGGSVVRPGGSLRLSCAASGFTVDDYSMSWVRQVPGKGLEWVSGINWNGGRTRYADAVKGRFTISRDSAKNSLYLQMNSLRAEDTALYYCAREFNNFESNWFDPWGQGTLVTVSSQGQDAHMIRMRQLIDIVDQLKNYVNDLVPEFLPAPEDVETNCEWSAFSCFQKAQLKSANTGNNERIINVSIKKLKEKPPSTNAGRRQKHRLTCPSCDSYEKKPPKEFLERFKSLLQKMIHQHLSSRTHGSEDS
light: SYELTQPPSVSVSPGQTARITCSGDALPKKYAYWYQQKPGQAPVLVISEDAKRPSGIPERFSGSSSGTMATLTISGAQVEDEADYYCYSTDASGNHRVFGGGTKLTVLGQPKAAPSVTLFPPSSEELQANKATLVCLISDFYPGAVTVAWKADSSPVKAGVETTTPSKQSNNKYAASSYLSLTPEQWKSHRSYSCQVTHEGSTVEKTVAPTECS
Kd: > 300 nM

B6: A-2-006 (22D4.006) x IL-21 (R5Q, R76E) homodimer fusion (other, not shown: a dimerising Fc or GST)
heavy: B5 heavy with A126Q
light: B5 light
Kd: > 300 nM

B7: A-2-006 (22D4.006) x IL-21 (R5E, R76A) homodimer fusion (other, not shown: a dimerising Fc or GST)
heavy: B5 heavy with A126E, E197A
light: B5 light
Kd: > 300 nM

B8: A-2-006 (22D4.006) x IL-21 (R9E, R76A) homodimer fusion (other, not shown: a dimerising Fc or GST)
heavy: B5 heavy with A126R, R130E, E197A
light: B5 light
Kd: > 300 nM

B9: A-3-009 (20C1.009) x IL-21 (R5Q, R76E) homodimer fusion (other, not shown: a dimerising Fc or GST)
heavy: EVQLLESGGGLVQPGGSLRLSCAASGFTFSSYDMSWVRQAPGKGLEWVSLISGGGSQTYYAESVKGRFTISRDNSKNTLYLQMNSLRAEDTAVYFCASPSGHYFYAMDVWGQGTTVTVSSQGQDQHMIRMRQLIDIVDQLKNYVNDLVPEFLPAPEDVETNCEWSAFSCFQKAQLKSANTGNNERIINVSIKKLKEKPPSTNAGRRQKHRLTCPSCDSYEKKPPKEFLERFKSLLQKMIHQHLSSRTHGSEDS
light: DIQMTQSPSSVSASVGDRVTITCRASQGISNWLAWYQQKPGKAPKLLIFAASSLQSGVPSRFSGSGSGTDFTLTISSLQPEDFATYYCQQAESFPHTFGGGTKVEIKRTVAAPSVFIFPPSDEQLKSGTASVVCLLNNFYPREAKVQWKVDNALQSGNSQESVTEQDSKDSTYSLSSTLTLSKADYEKHKVYACEVTHQGLSSPVTKSFNRGEC
Kd: > 300 nM

B10: A-4-006 (20C1.006) x IL-21 (R5A, R76E) homodimer fusion (other, not shown: a dimerising Fc or GST)
heavy: B9 heavy with Q57N, Q125A
light: B9 light
Kd: > 300 nM

B11: A-3-009 (20C1.009) x IL-21 (R5E, R76A) homodimer fusion (other, not shown: a dimerising Fc or GST)
heavy: B9 heavy with Q125E, E196A
light: B9 light
Kd: > 300 nM

B12: A-3-009 (20C1.009) x IL-21 (R9E, R76A) homodimer fusion (other, not shown: a dimerising Fc or GST)
heavy: B9 heavy with Q125R, R129E, E196A
light: B9 light
Kd: > 300 nM
